Data from article PMC9319256, “Human Enzyme PADI4 Binds to the Nuclear Carrier Importin α3” (Cells, 2022).

What was measured:
Impα3 [1] = target: T1, Impα3 (Homo sapiens, UniProt O00629); assay: Fluorescence titration of PADI4 with Impα3; type: binding; conditions: fluorescence at 330 nm; 3 µM PADI4, 0–25 µM importin; 20 mM Tris pH 7.5, 5 mM TCEP, 150 mM NaCl, 5% glycerol, 25 °C; titration repeated three times; ± fitting error
T1 construct: made in house
T1 sequence (O00629 1-521): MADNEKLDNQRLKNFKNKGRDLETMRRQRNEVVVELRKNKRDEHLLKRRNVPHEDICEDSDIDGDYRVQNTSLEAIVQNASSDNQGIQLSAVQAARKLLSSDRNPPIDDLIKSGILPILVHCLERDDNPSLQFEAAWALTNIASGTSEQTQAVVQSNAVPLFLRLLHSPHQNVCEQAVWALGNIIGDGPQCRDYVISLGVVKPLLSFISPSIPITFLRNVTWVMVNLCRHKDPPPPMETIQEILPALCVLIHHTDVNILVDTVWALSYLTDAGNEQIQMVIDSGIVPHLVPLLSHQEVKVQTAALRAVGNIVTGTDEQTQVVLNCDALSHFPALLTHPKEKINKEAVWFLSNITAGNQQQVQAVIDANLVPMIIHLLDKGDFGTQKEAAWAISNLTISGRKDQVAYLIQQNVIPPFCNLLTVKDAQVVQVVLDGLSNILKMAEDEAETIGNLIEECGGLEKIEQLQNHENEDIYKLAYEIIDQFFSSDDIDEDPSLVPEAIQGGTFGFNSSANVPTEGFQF
Procedure: (§1) For the titration between either Impα3 or ΔImpα3 and intact PADI4, increasing amounts of the corresponding importin species, in the concentration range 0–25 µM, were added to a solution with a fixed concentration of intact PADI4 (3 µM). Experiments were carried out in 20 mM Tris buffer (pH 7.5), 5 mM TCEP, 150 mM NaCl, and 5% glycerol at 25 °C (the storage buffer of PADI4). The experimental setup was the same as in the steady-state fluorescence experiments. Blank corrections containing the amount of each importin species were subtracted. Inner-filter effects were corrected. Each titration (Impα3 with PADI4 or ΔImpα3 with PADI4) was repeated three times, using new samples. In the three cases, the variations in the results were lower than 10%.
(§2) Handling and preparation of samples were the same described in Section 2.4.1. The dissociation constant of the corresponding complex, Kd, was calculated by fitting the binding isotherm to the general binding model, explicitly considering ligand depletion. […] Fitting to Equation (1) was carried out using KaleidaGraph (Synergy software, Reading, PA, USA).

ΔImpα3 [2] = assay: Isothermal titration calorimetry (ITC), ΔImpα3; type: binding, human
Procedure: (§3) Calorimetric titrations for testing the interaction of PADI4, as well as for the interaction of NLS1/2-PADI4 peptides, with both importins, Impα3 and ΔImpα3, were carried out in an Auto-iTC200 automated high-sensitivity calorimeter (MicroCal, Malvern-Panalytical, Malvern, UK). Experiments were performed in 20 mM Tris buffer (pH 7.5), 5 mM TCEP, 150 mM NaCl, and 5% glycerol at 25 °C. PADI4 or the peptide solution (100 μM) in the injection syringe was titrated into the importin solution (10 μM) in the calorimetric cell. The remaining experimental and processing details have been described previously. Due to the presence of glycerol in solution, background injection (included as an adjustable parameter in data fitting) was rather large. The data analysis was conducted in Origin 7.0 (OriginLab, Northampton, MA, USA) with user-defined fitting functions.

Impα3 [3] = target: T1, Impα3; assay: Steady-state fluorescence, complex versus addition spectrum, Impα3; type: binding; conditions: 20 µM PADI4 or peptide, 2 µM Impα3; 50 mM sodium phosphate pH 7.0, 25 °C; excitation 280 or 295 nm; triplicates
Procedure: Spectra were collected on a Cary Varian spectrofluorometer (Agilent, Santa Clara, CA, USA), interfaced with a Peltier unit. Following the standard protocols used in our laboratories, the samples were prepared the day before and left overnight at 5 °C; before experiments, samples were left for 1 h at 25 °C, where experiments were acquired. A 1 cm pathlength quartz cell (Hellma, Kruibeke, Belgium) was used. The concentration of PADI4 or NLS1/2-PADI4 peptides was 20 µM, and that of each importin species was 2 µM. Samples containing the corresponding isolated peptides, the isolated PADI4, the isolated corresponding importin species, and the corresponding mixtures (at the concentrations indicated above) were prepared. Experiments were performed with samples in 50 mM sodium phosphate buffer, pH 7.0. Fluorescence experiments were repeated in triplicates with newly prepared samples. Variations of results among the experiments were lower than 5%.
Polypeptide samples were excited either at 280 or 295 nm (although NLS2-PADI4 has only a single […]). The other experimental parameters used in the experiments have been described elsewhere. Appropriate blank corrections were made in all spectra.

ΔImpα3 [4] = assay: Fluorescence titration of PADI4 with ΔImpα3; type: binding, human; conditions: fluorescence at 330 nm; 3 µM PADI4, 0–25 µM importin; 20 mM Tris pH 7.5, 5 mM TCEP, 150 mM NaCl, 5% glycerol, 25 °C; titration repeated three times; ± fitting error
Procedure: as §1, §2

Impα3 [5] = target: T1, Impα3; assay: Isothermal titration calorimetry (ITC), Impα3; type: binding
Procedure: as §3

Impα3 [6] = target: T1, Impα3; assay: Far-UV CD, complex versus addition spectrum, Impα3; type: binding; conditions: 25 °C; average of six scans
Excerpt: Far-UV CD spectra were collected on a Jasco J810 spectropolarimeter (Jasco, Tokyo, Japan) interfaced with a Peltier unit. The instrument was periodically calibrated with (+)-10-camphorsulfonic acid. A cell of path length 0.1 cm was used (Hellma, Kruibeke, Belgium). All spectra were corrected by subtracting the corresponding baseline. Concentration of each polypeptide (importin species and either NLS1/2-PADI4 or PADI4) and the buffers were the same used in the fluorescence experiments (Section 2.4).
Isothermal wavelength spectra of each isolated macromolecule and that of the complex were acquired as an average of six scans, at a scan speed of 50 nm/min, with a response time of 2 s and a bandwidth of 1 nm. Handling and preparation of samples were the same described in Section 2.4.1.

[7] = Impα3, pH 7.5, 25 °C, 95% confidence interval in parentheses

Kd (Impα3 [1]): 3.9 ± 0.8 µM
Kd (ΔImpα3 [2]; PADI4 or peptide (100 μM) titrated into ΔImpα3 (10 μM), 20 mM Tris pH 7.5, 5 mM TCEP, 150 mM NaCl, 5% glycerol, 25 °C, 95% confidence interval in parentheses, read-out: Kd (dissociation constant)): 1.3 µM
Kd (ΔImpα3 [4]): 6 ± 1 µM
ΔG (Impα3 [5]; Impα3, pH 7.5, 25 °C): -7.3 kcal/mol
n (binding stoichiometry or percentage of binding-competent protein) (Impα3 [5]; [7]): 0.97 (0.94, 1.00)
ΔH (binding enthalpy) (Impα3 [5]; [7]): −65.5 (−72.0, −60.5) kcal/mol
Ka (association constant) (Impα3 [5]; PADI4 or peptide (100 μM) titrated into Impα3 (10 μM), 20 mM Tris pH 7.5, 5 mM TCEP, 150 mM NaCl, 5% glycerol, 25 °C, 95% confidence interval in parentheses): 2.1 (1.7, 2.5) 10^5 M^−1
Kd (Impα3 [5]; PADI4 or peptide (100 μM) titrated into Impα3 (10 μM), 20 mM Tris pH 7.5, 5 mM TCEP, 150 mM NaCl, 5% glycerol, 25 °C, 95% confidence interval in parentheses, read-out: Kd (dissociation constant)): 4.8 µM
Substance: PADI4: human peptidyl-arginine deiminase 4, intact protein, purified as previously described
Ka (association constant) (ΔImpα3 [2]; PADI4 or peptide (100 μM) titrated into ΔImpα3 (10 μM), 20 mM Tris pH 7.5, 5 mM TCEP, 150 mM NaCl, 5% glycerol, 25 °C, 95% confidence interval in parentheses): 7.8 (7.3, 8.5) 10^5 M^−1
-TΔS (ΔImpα3 [2]; ΔImpα3, pH 7.5, 25 °C): -30.4 kcal/mol
ΔG (ΔImpα3 [2]; ΔImpα3, pH 7.5, 25 °C): -8.0 kcal/mol
change in fluorescence spectrum of complex versus addition spectrum (Impα3 [3]): a variation in the fluorescence intensity
change in far-UV CD spectrum of complex versus addition spectrum (Impα3 [6]): the addition spectrum was not very different from that of the complex
